The data set concerns the molecule itself. Nature of the data set: AUC; Beckman Optima XL-I, UV detection at 280 nm, 45,000 rpm, 20°C; NalD in aqueous solution before addition of PEG3350; apparent molar masses from peak positions.

B1: NalD (natural protein)
chain: MRRTKEDSEKTRTAILLAAEELFLEKGVSHTSLEQIARAAGVTRGAVYWHFQNKAHLFNEMLNQVRLPPEQLTERLSGCDGSDPLRSLYDLCLEAVQSLLTQEKKRRILTILMQRCEFTEELREAQERNNAFVQMFIELCEQLFARDECRVRLHPGMTPRIASRALHALILGLFNDWLRDPRLFDPDTDAEHLLEPMFRGLVRDWGQASSAP
notes: NalD, TetR family repressor of the MexAB-OprM multi-drug efflux operon, Pseudomonas aeruginosa PAO1; a protein of 212 amino acids; nalD gene amplified by PCR and cloned into PET-30a between NdeI and XhoI; also called NalD protein; regulator of MexAB-OprM multi-drug efflux systems; source: E. coli BL21 star (DE3), purified (SFF, Heparin, Ni-NTA, monoQ columns)
For the protein B1, the binding result is given as “binds”.
